These results are taken from patent US20260027208A1 (published 2026).

Read-outs that look alike come from different tables or passages of the source.

The target of assay [1] is T1, KRAS G12D peptide on HLA-A*11:01 (human).
T1 peptide: VVVGADGVGK
The experiment in a line: CD137 by flow cytometry; transduced primary CD4+ and CD8+ T cells, TRAC/TRBC wild type; G12D peptide titrated (FIG. 3C); full-length, on cells. The protocol: (§1) Primary CD4+ and CD8+ T cells were transduced with a KRAS-G12D-specific T cell receptor (TCR69, TCR79, TCR80, TCR81, or TCR91), and were either edited to knockout TRAC and TRBC or left with unmodified TRAC and TRBC genes, and expanded for several days. Engineered T cells were incubated with G12D peptide at decreasing concentrations and T cell responses were assessed by measuring CD137 expression.
(§2) In additional experiments, the effect of TRAC and TRBC knockout was evaluated for primary CD4+ and CD8+ T cells transduced with further KRAS-G12D-specific TCRs. The double knockout improved TCR avidity for multiple TCRs as shown in FIG. 3C (corresponding EC50 values in TABLE 2 and Cmax values in TABLE 3), FIG. 3D (corresponding EC50 values in TABLE 4), and FIG. 3E (corresponding EC50 values in TABLE 5).
On the technique in general: Flow cytometry measures light scatter and fluorescence of single cells or particles in a stream.

Assay [2] deals with T1, KRAS G12D peptide on HLA-A*11:01. Briefly: CD137 by flow cytometry; transduced primary CD4+ and CD8+ T cells, TRAC/TRBC wild type; G12D peptide titrated (FIG. 3D); full-length, on cells. The protocol:
as §1, §2

For assay [3] the target is unchanged. The experiment in a line: CD137 by flow cytometry; transduced primary CD4+ and CD8+ T cells, TRAC/TRBC wild type; G12D peptide titrated (FIG. 3E); full-length, on cells. On the procedure:
as §1, §2

Assay [4] shares this target. Briefly: CD137 by flow cytometry; transduced primary CD4+ and CD8+ T cells, TRAC/TRBC double knockout; G12D peptide titrated (FIG. 3C); full-length, on cells. The protocol:
as §1, §2

Assay [5] shares this target. Briefly: CD137 by flow cytometry; transduced primary CD4+ and CD8+ T cells, TRAC/TRBC double knockout; G12D peptide titrated (FIG. 3D); full-length, on cells. On the procedure: as §1, §2
The target is the same in assay [6]. Briefly: CD137 by flow cytometry; transduced primary CD4+ and CD8+ T cells, TRAC/TRBC double knockout; G12D peptide titrated (FIG. 3E); full-length, on cells. On the procedure:
as §1, §2

For assay [7] the target is unchanged. Briefly: CD137 by flow cytometry; transduced primary CD4+ and CD8+ T cells without knockout of TRAC and TRBC; G12D peptide titrated (FIG. 3C); full-length, on cells. The protocol:
as §1, §2

For assay [8], the target named is T2, KRAS G12D mutant peptide presented by HLA-A*11:01 on cells (human). The experiment in a line: cell-based or functional assay.
Assay [9] concerns the target T2, KRAS G12D mutant peptide presented by …. Briefly: cell-based or functional assay. This is another data set of the same source.

B1: TCR4 (TCR, V domains shown)
Valpha: QKEVEQDPGPLSVPEGAIVSLNCTYSNSAFQYFMWYRQYSRKGPELLMYTYSSGNKEDGRFTAQVDKSSKYISLFIRDSQPSDSATYLCAMGALNSGAGSYQLTFGKGTKLSVIP
Vbeta: KAGVTQTPRYLIKTRGQQVTLSCSPISGHRSVSWYQQTPGQGLQFLFEYFSETQRNKGNFPGRFSGRQFSNSRSEMNVSTLELGDSALYLCASSLSSGTGTEAFFGQGTRLTVE
On to B1, for which the EC50 of peptide was determined as 49.8 nM in assay [1]; 31.1 nM in assay [2]; 49.8 nM in assay [3]; 11.8 nM in [4]; 4.4 nM in assay [5]; 11.8 nM in [6]. Moreover, the Cmax in assay [7] came to 16%.

B2: TCR1 (TCR)
TCR alpha: GDSVTQMEGPVTLSEEAFLTINCTYTATGYPSLFWYVQYPGEGLQLLLKATKADDKGSNKGFEATYRKETTSFHLEKGSVQVSDSAVYFCALSDRVGGARLMFGDGTQLVVKPNIQNPDPAVYQLRDSKSSDKSVCLFTDFDSQTNVSQSKDSDVYITDKCVLDMRSMDFKSNSAVAWSNKSDFACANAFNNSIIPEDTFFPSPESSCDVKLVEKSFETDTNLNFQNLSVIGFRILLLKVAGFNLLMTLRLWSS
TCR beta: DIYQTPRYLVIGTGKKITLECSQTMGHDKMYWYQQDPGMELHLIHYSYGVNSTEKGDLSSESTVSRIRTEHFPLTLESARPSHTSQYLCASSEGLYNEQFFGPGTRLTVLEDLKNVFPPEVAVFEPSEAEISHTQKATLVCLATGFYPDHVELSWWVNGKEVHSGVCTDPQPLKEQPALNDSRYCLSSRLRVSATFWQNPRNHFRCQVQFYGLSENDEWTQDRAKPVTQIVSAEAWGRADCGFTSESYQQGVLSATILYEILLGKATLYAVLVSALVLMAMVKRKDSRG
In [8], B2 registered a T cell activation EC50 (CD137 vs G12D peptide dose), TRAC/TRBC double knockout T cells of 64.1 nM and a T cell activation EC50 (CD137 vs G12D peptide dose), WT TRAC/TRBC T cells of 119 nM. For the same molecule, in assay [9], the T cell activation EC50 (CD137 vs G12D peptide dose), TRAC/TRBC double knockout T cells was 12.2 nM and the T cell activation EC50 (CD137 vs G12D peptide dose), WT TRAC/TRBC T cells stood at 51.1 nM.

B3: TCR1 (TCR, V domains shown)
Valpha: GDSVTQMEGPVTLSEEAFLTINCTYTATGYPSLFWYVQYPGEGLQLLLKATKADDKGSNKGFEATYRKETTSFHLEKGSVQVSDSAVYFCALSDRVGGARLMFGDGTQLVVKP
Vbeta: EADIYQTPRYLVIGTGKKITLECSQTMGHDKMYWYQQDPGMELHLIHYSYGVNSTEKGDLSSESTVSRIRTEHFPLTLESARPSHTSQYLCASSEGLYNEQFFGPGTRLTVL
For B3, the EC50 of peptide turned out to be 51.1 nM in assay [2], 119 nM in [3], 12.2 nM in assay [5] and 64.1 nM in assay [6].

B4: TCR6 (TCR, V domains shown)
Valpha: GQQLNQSPQSMFIQEGEDVSMNCTSSSIFNTWLWYKQDPGEGPVLLIALYKAGELTSNGRLTAQFGITRKDSFLNISASIPSDVGIYFCAGRREGAQKLVFGQGTRLTINP
Vbeta: GAGVSQSPRYKVAKRGQDVALRCDPISGHVSLFWYQQALGQGPEFLTYFQNEAQLDKSGLPSDRFFAERPEGSVSTLKIQRTQQEDSAVYLCASSSTLMGVNIQYFGAGTRLSVL
As for B4, the EC50 of peptide in assay [2] amounted to 12.2 nM; in [3], 24 nM; in assay [5], 6.4 nM; in [6], 14.3 nM.

B5: TCR2 (TCR)
TCR alpha: AQTVTQSQPEMSVQEAETVTLSCTYDTSENNYYLFWYKQPPSRQMILVIRQEAYKQQNATENRFSVNFQKAAKSFSLKISDSQLGDTAMYFCAFMYPSQGGSEKLVFGKGMKLTVNPNIQNPDPAVYQLRDSKSSDKSVCLFTDFDSQTNVSQSKDSDVYITDKCVLDMRSMDFKSNSAVAWSNKSDFACANAFNNSIIPEDTFFPSPESSCDVKLVEKSFETDTNLNFQNLSVIGFRILLLKVAGFNLLMTLRLWSS
TCR beta: MGPGLLCWVLLCLLGAGSVETGVTQSPTHLIKTRGQQVTLRCSSQSGHNTVSWYQQALGQGPQFIFQYYREEENGRGNFPPRFSGLQFPNYSSELNVNALELDDSALYLCASSSPGFRSYGYTFGSGTRLTVVEDLKNVFPPEVAVFEPSEAEISHTQKATLVCLATGFYPDHVELSWWVNGKEVHSGVCTDPQPLKEQPALNDSRYCLSSRLRVSATFWQNPRNHFRCQVQFYGLSENDEWTQDRAKPVTQIVSAEAWGRADCGFTSESYQQGVLSATILYEILLGKATLYAVLVSALVLMAMVKRKDSRG
In [8], B5 had a Cmax (%) of CD137 T cell activation by G12D peptide, without knockout of TRAC and TRBC of 42.7%; a T cell activation EC50 (CD137 vs G12D peptide dose), TRAC/TRBC double knockout T cells of 10.1 nM; a T cell activation EC50 (CD137 vs G12D peptide dose), WT TRAC/TRBC T cells of 31.6 nM. In assay [9], this molecule yielded a T cell activation EC50 (CD137 vs G12D peptide dose), TRAC/TRBC double knockout T cells of 7.3 nM and a T cell activation EC50 (CD137 vs G12D peptide dose), WT TRAC/TRBC T cells of 22.2 nM.

B6: TCR5 (TCR, V domains shown)
Valpha: GEDVEQSLFLSVREGDSSVINCTYTDSSSTYLYWYKQEPGAGLQLLTYIFSNMDMKQDQRLTVLLNKKDKHLSLRIADTQTGDSAIYFCAERDAGNNRKLIWGLGTSLAVNP
Vbeta: GAGVSQSPRYKVAKRGQDVALRCDPISGHVSLFWYQQALGQGPEFLTYFQNEAQLDKSGLPSDRFFAERPEGSVSTLKIQRTQQEDSAVYLCASSLEGGDTQYFGPGTRLTVL
As for B6, the EC50 of peptide in assay [1] is 36.3 nM; in assay [2], 37.8 nM; in assay [3] it was 36.3 nM; in [4] it was 7.6 nM; in [5], 9.4 nM; in assay [6], 7.6 nM. Besides, the Cmax in assay [7] is 23.9%.

B7: TCR6 (TCR)
TCR alpha: GQQLNQSPQSMFIQEGEDVSMNCTSSSIFNTWLWYKQDPGEGPVLLIALYKAGELTSNGRLTAQFGITRKDSFLNISASIPSDVGIYFCAGRREGAQKLVFGQGTRLTINPNIQNPDPAVYQLRDSKSSDKSVCLFTDFDSQTNVSQSKDSDVYITDKCVLDMRSMDFKSNSAVAWSNKSDFACANAFNNSIIPEDTFFPSPESSCDVKLVEKSFETDTNLNFQNLSVIGFRILLLKVAGFNLLMTLRLWSS
TCR beta: GAGVSQSPRYKVAKRGQDVALRCDPISGHVSLFWYQQALGQGPEFLTYFQNEAQLDKSGLPSDRFFAERPEGSVSTLKIQRTQQEDSAVYLCASSSTLMGVNIQYFGAGTRLSVLEDLKNVFPPEVAVFEPSEAEISHTQKATLVCLATGFYPDHVELSWWVNGKEVHSGVCTDPQPLKEQPALNDSRYCLSSRLRVSATFWQNPRNHFRCQVQFYGLSENDEWTQDRAKPVTQIVSAEAWGRADCGFTSESYQQGVLSATILYEILLGKATLYAVLVSALVLMAMVKRKDSRG
B7: the T cell activation EC50 (CD137 vs G12D peptide dose), TRAC/TRBC double knockout T cells stood at 14.3 nM in [8] and 6.4 nM in assay [9]. Moreover, the T cell activation EC50 (CD137 vs G12D peptide dose), WT TRAC/TRBC T cells was 24 nM in assay [8] and 12.2 nM in [9].

B8: TCR2 (TCR, V domains shown)
Valpha: AQTVTQSQPEMSVQEAETVTLSCTYDTSENNYYLFWYKQPPSRQMILVIRQEAYKQQNATENRFSVNFQKAAKSFSLKISDSQLGDTAMYFCAFMYPSQGGSEKLVFGKGMKLTVNP
Vbeta: ETGVTQSPTHLIKTRGQQVTLRCSSQSGHNTVSWYQQALGQGPQFIFQYYREEENGRGNFPPRFSGLQFPNYSSELNVNALELDDSALYLCASSSPGFRSYGYTFGSGTRLTVV
In the case of B8, the EC50 of peptide came to 31.6 nM in assay [1]; 22.2 nM in [2]; 31.6 nM in assay [3]; 10.1 nM in [4]; 7.3 nM in [5]; 10.1 nM in assay [6]. In [7], this molecule displayed a Cmax of 42.7%.

B9: TCR91 (TCR, V domains shown)
Valpha: AQKVTQAQTEISVVEKEDVTLDCVYETRDTTYYLFWYKQPPSGELVFLIRRNSFDEQNEISGRYSWNFQKSTSSFNFTITASQVVDSAVYFCALNEGGGSTLGRLYFGRGTQLTVWP
Vbeta: DAMVIQNPRYQVTQFGKPVTLSCSQTLNHNVMYWYQQKSSQAPKLLFHYYDKDFNNEADTPDNFQSRRPNTSFCFLDIRSPGLGDAAMYLCATSTGRVYQPQHFGDGTRLSIL
With B9, the EC50 of peptide amounted to 131 nM in assay [1]; 179 nM in assay [2]; 131 nM in [3]; 36.5 nM in assay [4]; 14.4 nM in [5]; 36.5 nM in assay [6]. Moreover, the Cmax in [7] is 14.4%.
